Data: PMC2932715

Tests used:
[1] = target: hemagglutinin (HA) ectodomain from A/New York/107/2003 (H7N2) (influenza A virus A/New York/107/2003 (H7N2)); assay: SEC
[2] = target: hemagglutinin (HA) ectodomain from A/New York/107/2003 (H7N2) (influenza A virus A/New York/107/2003 (H7N2)); assay: crystal structure

“hemagglutinin (HA) ectodomain from A/New York/107/2003 (H7N2) (natural protein)” was tested, and the stoichiometry N [1] was 3 and the stoichiometry N [2] was 3.
